Results: patent publication US20260275311, “CRISPR NUCLEASE POLYPEPTIDES AND GENE EDITING SYSTEMS COMPRISING SUCH” (ARBOR BIOTECHNOLOGIES, INC., published 2026)
Positions count from the first letter of the chain named.

T1: Nuclease A I67R (I67R)
T1 chain: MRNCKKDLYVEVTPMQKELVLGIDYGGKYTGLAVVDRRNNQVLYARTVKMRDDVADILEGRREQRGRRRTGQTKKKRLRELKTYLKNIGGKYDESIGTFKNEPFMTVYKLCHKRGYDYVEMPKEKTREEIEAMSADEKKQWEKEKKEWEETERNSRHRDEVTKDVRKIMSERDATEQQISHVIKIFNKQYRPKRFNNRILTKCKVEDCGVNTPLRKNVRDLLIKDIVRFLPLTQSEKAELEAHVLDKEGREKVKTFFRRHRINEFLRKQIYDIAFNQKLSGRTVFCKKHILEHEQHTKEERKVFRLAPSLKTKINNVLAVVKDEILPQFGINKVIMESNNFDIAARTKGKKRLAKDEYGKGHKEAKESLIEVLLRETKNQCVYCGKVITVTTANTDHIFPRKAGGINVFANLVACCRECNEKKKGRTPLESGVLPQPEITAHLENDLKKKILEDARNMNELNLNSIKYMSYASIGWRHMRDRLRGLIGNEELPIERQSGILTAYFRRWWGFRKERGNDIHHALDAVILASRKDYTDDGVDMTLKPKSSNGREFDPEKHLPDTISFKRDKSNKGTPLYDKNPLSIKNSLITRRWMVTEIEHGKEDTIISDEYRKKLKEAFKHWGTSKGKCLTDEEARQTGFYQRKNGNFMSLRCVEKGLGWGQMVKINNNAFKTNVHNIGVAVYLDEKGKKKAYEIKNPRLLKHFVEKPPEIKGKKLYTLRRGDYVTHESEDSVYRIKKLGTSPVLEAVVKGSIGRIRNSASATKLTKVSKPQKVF

T2: Nuclease A I67R/D568R/E706R
T2 chain: T1 chain with D568R, E706R

T3: Nuclease A
T3 chain: T1 chain with R67I

B1: Nuclease A VEGFA-T6 guide ; VEGFA-T6 target (ssRNA ; dsDNA)
RNA: UUUGCCCAUACUGGGGACCAGUUACAGUUAAGGCUCUUUGGAAACAAAGAAGCCUUAAUUGUAAAACGCCUAUAUGGUAAAGUGAUGUACGUUUGGGUAUAUAUCGCCAGCCUGAACCUCUACGCCAGAAAUGGCAGCUUUAUCAUGGGUUAGGACGAUAUUUAAAAAACUUUCUGCGGCUUGCUUACUUUAGUAAGCUUUGUGGCUGAGGCAGAAUUCCUU
DNA 1: TTTGCCCATACTGGGGACCA
DNA 2: TGGTCCCCAGTATGGGCAAA
B2: Nuclease A AAVS1-T3 guide ; AAVS1-T3 target (ssRNA ; dsDNA)
RNA: UUGUGAGAAUGGUGCGUCCUGUUACAGUUAAGGCUCUUUGGAAACAAAGAAGCCUUAAUUGUAAAACGCCUAUAUGGUAAAGUGAUGUACGUUUGGGUAUAUAUCGCCAGCCUGAACCUCUACGCCAGAAAUGGCAGCUUUAUCAUGGGUUAGGACGAUAUUUAAAAAACUUUCUGCGGCUUGCUUACUUUAGUAAGCUUUGUGGCUGAGGCAGAAUUCCUU
DNA 1: TTGTGAGAATGGTGCGTCCT
DNA 2: AGGACGCACCATTCTCACAA

Columns and labels:
Conditions in all cases: tags: N-terminal SV40 NLS, C-terminal XTEN linker + nucleoplasmin NLS
[1] = target: T1, Nuclease A I67R; experiment: cell_activity; PAM NGG; HEK293T
[2] = target: T2, Nuclease A I67R/D568R/E706R; experiment: cell_activity; PAM NGG (AGG); HEK293T
Description: (§1) Approximately 16 hours prior to transfection, 25,000 HEK293T cells in DMEM/10% FBS+Pen/Strep (D10 media) were plated into each well of a 96-well plate. On the day of transfection, the cells were 50-90% confluent. For each well to be transfected, a mixture of Lipofectamine 2000™ (ThermoFisher Scientific) and Opti-MEM™ (ThermoFisher Scientific) was prepared and incubated at room temperature for 5 minutes (Solution 1). After incubation, the Lipofectamine 2000™: Opti-MEM™ mixture was added to a separate mixture containing the CRISPR nuclease plasmid (NLS-tagged), RNA guide plasmid, and Opti-MEM™ (Solution 2). In the case of negative controls, the CRISPR nuclease plasmid was excluded. Solutions 1 and 2 were mixed by pipetting up and down, then incubated at room temperature for 25 minutes. Following incubation, the Solution 1 and 2 mixture was added dropwise to each well of a 96-well plate containing the cells. Approximately 72 hours post transfection, cells were trypsinized by adding TrypLE™ (ThermoFisher Scientific) to the center of each well and incubating at 37° C. for approximately 5 minutes. D10 media was then added to each well and mixed to resuspend cells. The resuspended cells were centrifuged for 10 minutes to obtain a pellet, and the supernatant was discarded. The cell pellet was then resuspended in QuickExtract™ buffer (Lucigen®), and cells were incubated at 65° C. for 15 minutes, 68° C. for 15 minutes, and 98° C. for 10 minutes.
(§2) Each Nuclease A variant and RNA guide (see Table 5) was cloned as described in Example 2. HEK293T cells were further transfected, followed by NGS analysis, as described in Example 2. For each target, indel ratios, referring to the percentage of NGS reads comprising indels, were calculated for Nuclease A (SEQ ID NO: 1) and for each variant of Nuclease A. The indel ratios shown in Table 6 were calculated as the average of two bioreplicates, each of which contained two technical replicates.

[3] = target: T3, Nuclease A; experiment: cell_activity; PAM NGG (AGG); HEK293T
Description: as §1, §2

| Binder | binding signal [1] [fold vs Nuclease A] | activity [2] [indel ratio] | activity [3] [indel ratio] |
| --- | --- | --- | --- |
| B1 | 4.43 | 0.325 | 0.049 |
| B2 | 7.07 | 0.37 | 0.044 |
